# Data: article PMC3021122
# Target: Shigella flexneri Spa15 (residues 1-133), N-terminal His tag, unlabelled (Shigella flexneri) (UniProt P35530)
# Test: multi-angle laser light scattering; co-purified Spa15:IpgB1 complex; data not shown
substance,measurement,value
Shigella flexneri IpgB1 (residues 1-208) (natural protein),stoichiometry N (Spa15 per IpgB1),2
